Data taken from patent US20250002945, “NEW TALE PROTEIN SCAFFOLDS WITH IMPROVED ON-TARGET/OFF-TARGET ACTIVITY RATIOS” (CELLECTIS SA, published 2025).

Legend:
Experiment in all cases: cell_activity; T cells, mostly above 70%
Details in all cases: tags: SV40 NLS; FokI fusion
CISH (3) right V2 TALEN = target: T1, CISH (3) right V2 TALEN (synthetic, UniProt Q56830 SEQ:15-719)
T1 chain: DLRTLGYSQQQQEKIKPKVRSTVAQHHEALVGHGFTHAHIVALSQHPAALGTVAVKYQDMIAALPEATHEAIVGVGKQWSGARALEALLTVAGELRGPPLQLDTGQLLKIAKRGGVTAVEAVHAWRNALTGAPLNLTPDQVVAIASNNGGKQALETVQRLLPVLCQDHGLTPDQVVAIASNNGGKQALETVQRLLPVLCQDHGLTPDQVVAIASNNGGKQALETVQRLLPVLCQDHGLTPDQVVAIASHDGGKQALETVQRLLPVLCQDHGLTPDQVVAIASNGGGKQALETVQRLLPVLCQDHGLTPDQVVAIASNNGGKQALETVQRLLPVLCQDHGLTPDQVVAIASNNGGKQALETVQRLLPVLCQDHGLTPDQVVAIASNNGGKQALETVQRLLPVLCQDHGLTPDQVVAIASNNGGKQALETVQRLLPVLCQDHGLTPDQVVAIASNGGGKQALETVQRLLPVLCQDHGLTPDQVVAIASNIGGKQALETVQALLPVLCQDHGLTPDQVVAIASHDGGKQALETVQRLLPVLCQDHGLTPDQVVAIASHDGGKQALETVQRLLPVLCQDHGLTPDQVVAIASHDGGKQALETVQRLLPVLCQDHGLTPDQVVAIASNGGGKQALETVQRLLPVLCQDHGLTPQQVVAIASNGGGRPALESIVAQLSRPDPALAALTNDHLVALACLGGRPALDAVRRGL

CD38 (1) left V2 TALEN = target: T2, CD38 (1) left V2 TALEN (synthetic, UniProt Q56830 SEQ:15-719)
T2 chain: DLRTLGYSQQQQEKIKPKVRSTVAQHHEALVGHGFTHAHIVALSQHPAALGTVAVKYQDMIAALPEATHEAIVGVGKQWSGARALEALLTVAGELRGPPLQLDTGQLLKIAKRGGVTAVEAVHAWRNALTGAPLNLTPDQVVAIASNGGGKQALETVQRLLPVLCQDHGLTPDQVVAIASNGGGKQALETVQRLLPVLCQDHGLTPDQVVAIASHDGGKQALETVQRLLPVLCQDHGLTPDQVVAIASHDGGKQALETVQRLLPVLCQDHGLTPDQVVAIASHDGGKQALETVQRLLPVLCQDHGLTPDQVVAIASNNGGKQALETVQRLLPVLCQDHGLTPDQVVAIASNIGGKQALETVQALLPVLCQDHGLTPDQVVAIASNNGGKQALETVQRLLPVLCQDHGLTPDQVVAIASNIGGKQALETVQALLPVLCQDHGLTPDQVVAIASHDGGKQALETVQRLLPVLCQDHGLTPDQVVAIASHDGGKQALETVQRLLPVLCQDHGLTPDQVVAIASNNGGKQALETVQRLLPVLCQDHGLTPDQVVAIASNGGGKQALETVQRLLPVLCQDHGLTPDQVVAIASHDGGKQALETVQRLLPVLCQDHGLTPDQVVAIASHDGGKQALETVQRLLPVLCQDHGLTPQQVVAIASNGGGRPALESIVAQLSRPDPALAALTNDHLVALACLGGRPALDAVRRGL

CD38 (1) right V2 TALEN = target: T3, CD38 (1) right V2 TALEN (synthetic, UniProt Q56830 SEQ:15-719)
T3 chain: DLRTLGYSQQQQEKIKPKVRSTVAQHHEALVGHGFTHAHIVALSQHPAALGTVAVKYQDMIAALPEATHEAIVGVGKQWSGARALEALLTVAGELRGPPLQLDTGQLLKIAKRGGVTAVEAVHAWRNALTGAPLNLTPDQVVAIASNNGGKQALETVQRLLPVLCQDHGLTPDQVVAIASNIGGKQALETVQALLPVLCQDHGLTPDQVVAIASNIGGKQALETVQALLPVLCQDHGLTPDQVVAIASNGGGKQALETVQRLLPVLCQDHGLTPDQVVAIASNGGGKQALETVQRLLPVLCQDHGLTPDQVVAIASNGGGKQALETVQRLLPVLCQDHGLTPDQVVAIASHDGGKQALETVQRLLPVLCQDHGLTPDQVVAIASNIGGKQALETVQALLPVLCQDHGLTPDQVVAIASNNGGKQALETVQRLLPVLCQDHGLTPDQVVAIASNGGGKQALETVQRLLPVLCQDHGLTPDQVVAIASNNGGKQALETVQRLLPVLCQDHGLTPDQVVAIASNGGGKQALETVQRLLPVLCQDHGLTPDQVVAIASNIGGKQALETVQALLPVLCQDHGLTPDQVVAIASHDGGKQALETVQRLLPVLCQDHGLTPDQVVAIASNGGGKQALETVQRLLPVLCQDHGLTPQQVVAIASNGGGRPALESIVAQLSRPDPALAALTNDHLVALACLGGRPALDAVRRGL

CD38 (2) left V2 TALEN = target: T4, CD38 (2) left V2 TALEN (synthetic, UniProt Q56830 SEQ:15-719)
T4 chain: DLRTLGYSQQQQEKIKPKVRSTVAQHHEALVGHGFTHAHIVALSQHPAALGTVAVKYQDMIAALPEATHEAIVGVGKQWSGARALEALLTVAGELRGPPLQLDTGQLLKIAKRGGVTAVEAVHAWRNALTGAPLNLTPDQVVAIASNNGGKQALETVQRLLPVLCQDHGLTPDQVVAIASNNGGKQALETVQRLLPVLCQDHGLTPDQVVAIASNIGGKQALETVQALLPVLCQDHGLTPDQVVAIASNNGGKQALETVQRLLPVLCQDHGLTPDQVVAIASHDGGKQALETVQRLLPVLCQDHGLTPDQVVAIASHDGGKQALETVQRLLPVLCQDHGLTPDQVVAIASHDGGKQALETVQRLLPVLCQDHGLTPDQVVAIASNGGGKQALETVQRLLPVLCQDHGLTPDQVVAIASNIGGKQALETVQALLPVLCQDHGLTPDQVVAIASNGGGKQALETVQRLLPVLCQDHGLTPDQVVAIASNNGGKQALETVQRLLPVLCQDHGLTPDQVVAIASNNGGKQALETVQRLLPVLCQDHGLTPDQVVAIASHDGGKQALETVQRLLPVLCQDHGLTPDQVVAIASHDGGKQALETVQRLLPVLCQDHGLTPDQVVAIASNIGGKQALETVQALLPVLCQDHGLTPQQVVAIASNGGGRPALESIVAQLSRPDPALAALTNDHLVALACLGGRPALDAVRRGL

CD38 (2) right V2 TALEN = target: T5, CD38 (2) right V2 TALEN (synthetic, UniProt Q56830 SEQ:15-719)
T5 chain: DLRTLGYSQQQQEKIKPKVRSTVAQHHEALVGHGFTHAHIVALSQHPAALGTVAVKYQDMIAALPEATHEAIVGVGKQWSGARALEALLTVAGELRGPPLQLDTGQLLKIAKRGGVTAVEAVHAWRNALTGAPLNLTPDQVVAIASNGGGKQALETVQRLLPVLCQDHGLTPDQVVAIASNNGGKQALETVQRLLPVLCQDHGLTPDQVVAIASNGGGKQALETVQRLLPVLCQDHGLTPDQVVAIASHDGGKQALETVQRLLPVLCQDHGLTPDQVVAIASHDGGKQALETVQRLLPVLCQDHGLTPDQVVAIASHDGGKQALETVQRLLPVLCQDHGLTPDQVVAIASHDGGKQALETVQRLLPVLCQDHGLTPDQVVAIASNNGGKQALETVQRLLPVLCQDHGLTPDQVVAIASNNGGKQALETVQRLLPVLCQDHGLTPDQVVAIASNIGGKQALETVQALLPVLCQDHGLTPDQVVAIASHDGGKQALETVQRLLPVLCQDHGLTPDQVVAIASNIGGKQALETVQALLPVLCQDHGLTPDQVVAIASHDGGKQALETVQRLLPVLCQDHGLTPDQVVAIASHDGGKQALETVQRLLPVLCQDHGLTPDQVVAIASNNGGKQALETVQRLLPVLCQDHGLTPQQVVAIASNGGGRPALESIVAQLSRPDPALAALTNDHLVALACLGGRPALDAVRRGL

IgH (1) left V2 TALEN = target: T6, IgH (1) left V2 TALEN (synthetic, UniProt Q56830 SEQ:15-719)
T6 chain: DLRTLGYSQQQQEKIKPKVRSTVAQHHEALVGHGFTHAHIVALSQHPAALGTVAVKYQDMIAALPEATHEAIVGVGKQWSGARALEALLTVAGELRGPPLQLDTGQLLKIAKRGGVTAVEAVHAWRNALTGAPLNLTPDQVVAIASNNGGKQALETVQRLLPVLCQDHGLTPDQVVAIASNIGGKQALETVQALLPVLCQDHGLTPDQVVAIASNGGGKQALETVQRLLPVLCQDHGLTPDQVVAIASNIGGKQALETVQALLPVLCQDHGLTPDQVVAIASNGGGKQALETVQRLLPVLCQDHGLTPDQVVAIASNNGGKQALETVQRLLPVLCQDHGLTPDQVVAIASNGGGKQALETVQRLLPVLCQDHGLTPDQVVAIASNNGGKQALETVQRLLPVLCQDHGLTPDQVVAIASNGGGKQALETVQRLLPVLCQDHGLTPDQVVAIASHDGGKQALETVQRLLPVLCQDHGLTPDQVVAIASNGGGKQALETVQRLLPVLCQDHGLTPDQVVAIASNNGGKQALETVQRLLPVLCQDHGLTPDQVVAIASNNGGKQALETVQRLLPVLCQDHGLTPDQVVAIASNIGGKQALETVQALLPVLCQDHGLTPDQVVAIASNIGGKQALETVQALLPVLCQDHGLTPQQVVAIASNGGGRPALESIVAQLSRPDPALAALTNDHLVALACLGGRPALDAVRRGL

IgH (1) right V2 TALEN = target: T7, IgH (1) right V2 TALEN (synthetic, UniProt Q56830 SEQ:15-719)
T7 chain: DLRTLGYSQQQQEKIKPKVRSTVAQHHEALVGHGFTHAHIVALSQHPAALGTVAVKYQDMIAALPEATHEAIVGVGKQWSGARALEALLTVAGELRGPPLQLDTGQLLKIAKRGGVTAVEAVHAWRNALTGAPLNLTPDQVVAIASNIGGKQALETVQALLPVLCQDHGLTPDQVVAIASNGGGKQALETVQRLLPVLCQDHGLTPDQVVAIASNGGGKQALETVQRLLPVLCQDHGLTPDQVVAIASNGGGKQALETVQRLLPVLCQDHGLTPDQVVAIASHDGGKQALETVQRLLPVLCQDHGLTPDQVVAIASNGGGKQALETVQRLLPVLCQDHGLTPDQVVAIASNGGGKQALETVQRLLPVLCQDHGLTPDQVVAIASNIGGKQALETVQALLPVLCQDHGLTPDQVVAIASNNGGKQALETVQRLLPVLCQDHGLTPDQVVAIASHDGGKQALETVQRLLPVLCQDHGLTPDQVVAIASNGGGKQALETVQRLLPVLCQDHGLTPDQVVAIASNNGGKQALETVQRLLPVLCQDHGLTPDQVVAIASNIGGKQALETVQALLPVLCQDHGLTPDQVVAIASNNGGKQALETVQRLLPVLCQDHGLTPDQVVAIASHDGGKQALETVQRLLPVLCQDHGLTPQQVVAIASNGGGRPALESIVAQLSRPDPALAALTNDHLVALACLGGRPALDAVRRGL

B1: CISH (3) right half-site (dsDNA)
DNA 1: GAGGGTACCCCAGCCCA
DNA 2: TGGGCTGGGGTACCCTC
How did the activity (CISH (3) right V2 TALEN) turn out when B1 was run?
The activity was > 50 % indels.

B2: CD38 (1) left half-site (dsDNA)
DNA 1: TTTCCCGAGACCGTCCT
DNA 2: AGGACGGTCTCGGGAAA
For B2, which activity (CD38 (1) left V2 TALEN) is on record?
The activity was > 50 % indels.

B3: CD38 (1) right half-site (dsDNA)
DNA 1: AAGTACACTGAAATTCA
DNA 2: TGAATTTCAGTGTACTT
B3 was tested. Which activity (CD38 (1) right V2 TALEN) did it give?
Its activity is > 50 % indels.

B4: CD38 (2) left half-site (dsDNA)
DNA 1: TGGAGCCCTATGGCCAA
DNA 2: TTGGCCATAGGGCTCCA
For B4, which activity (CD38 (2) left V2 TALEN) is on record?
The activity was > 50 % indels.

B5: CD38 (2) right half-site (dsDNA)
DNA 1: CCGGTGTCCGGGGACAA
DNA 2: TTGTCCCCGGACACCGG
Which activity (CD38 (2) right V2 TALEN) does the source give for B5 here?
The activity was > 50 % indels.

B6: IgH (1) left half-site (dsDNA)
DNA 1: TGATATGTGTCTGGAAT
DNA 2: ATTCCAGACACATATCA
How did the activity (IgH (1) left V2 TALEN) turn out when B6 was run?
Its activity is > 50 % indels.

B7: IgH (1) right half-site (dsDNA)
DNA 1: AGCTCAGCTAAGAAATA
DNA 2: TATTTCTTAGCTGAGCT
How did the activity (IgH (1) right V2 TALEN) turn out when B7 was run?
Its activity is > 50 % indels.
